Reference: patent US20130288908A1 (MITSUBISHI TANABE PHARMA, published 2013)

B1: Fab-TT (Fab)
chain 1: MDIQMTQSPSSLSASVGDRVTITCRASQDIKNYLSWYQQQPGNAPKPLIYAGSNRQSGVPSRFSGSGSETDFTLTISSLQPEDFATYYCQQTYIYPITFGQGTKVEIKRTVAAPSVFIFPPSDEQLKSGTASVVCLLNNFYPREAKVQWKVDNALQSGNSQESVTEQDSKDSTYSLSSTLTLSKADYEKHKVYACEVTHQGLSSPVTKSFNRGEGGEQKLISEEDL
chain 2: MEVQLVESGGGLVQPGGSLRLSCAASGFTIERYAMGWVRQAPGKGLEWVGTIYPWGDYTDYADSVKGRFTISRDNSKNTLYLQMNSLRDEDTAVYYCARSNYPNGMYYVMEYWGQGTLVTVSSASTKGPSVFPLAPSSKSTSGGTAALGCLVKDYFPEPVTVSWNSGALTSGVHTFPAVLQSSGLYSLSSVVTVPSSSLGTQTYICNVNHKPSNTKVDKKVEPGSGGDYKDDDDKSSDYKDDDDKHHHHHH
notes: also called Fag-TT; TNFαR-reactive Fab
B2: Fab-HT (Fab)
chain 1: not shown
chain 2: MEVQLVESGGGLVQPGGSLRLSCAASGFTIERYAMGWVRQAPGKGLEWVGTIYPWGDYTDYADSVKGRFTISRDNSKNTLYLQMNSLRDEDTAVYYCARSNYPNGMYYVMEYWGQGTLVTVSSASTKGPSVFPLAPSSKSTSGGTAALGCLVKDYFPEPVTVSWNSGALTSGVHTFPAVLQSSGLYSLSSVVTVPSSSLGTQTYICNVNHKPSNTKVDKKVEPGSGGDYKDDDDKSSDYKDDDDKHHHHHH
notes: also called hybrid Fab (Her-2-reactive L chain and TNFαR-reactive H chain)

Legend:
[1] = biological target: T1, Her-2 (human, UniProt P04626 23-652); assay: ELISA, Her-2 immobilized at 1 µg/ml, detection with HRP-labeled anti-FLAG antibody, OD 405 nm
T1 construct: Bought protein (R&D systems); also called human EGFR-2 (Her-2); Her2 antigen

[2] = biological target: T2, biotinylated Her-2 (human, UniProt P04626 23-652, biotinylated with Sulfo-NHS-SS-Biotin (sites not given)); assay: sandwich ELISA, biotinylated antigen captured on the stAv coating (BSA coating as control), Fab detected with HRP-labeled anti-FLAG antibody, OD 405 nm
T2 construct: also called biotinylated antigen

Row | Binder | binding result [1] | binding result [2]
1 | B1 | no binding | no binding
2 | B2 | no binding | –
